# Reference: patent US20160139118A1, “NOVEL ASSAY” (GLAXOSMITHKLINE INTELLECTUAL PROPERTY (NO.2) LIMITED, priority 2013, published 2016)
# System: CFI
# Test: CFI bioactivity in plasma samples from Alzheimer's disease patients treated with Compound A
# Assay type: in vivo, human
# Details: 6 mg/kg intravenously
# Protocol: FIG. 15. CFI bioactivity in samples from Alzheimer's disease patients treated with anti-BAM (Compound A).
# 3.14. Providing Evidence that an Anti-BAM Antibody can Modulate CFI Bioactivity in Alzheimer's Patients. Finally, a set of human samples from Alzheimer disease patients treated with Compound A were evaluated for CFI bioactivity in a single assay. The assay conditions follow: • 80 μg/ml CFH and C3b. • 0.01-25 nL of plasma (half-log dilutions). • Incubation 2 hours. • Measurement of iC3b via ELISA. • Samples from one patient were run in a single assay. • Each assay was run in singlets. • To control inter-assay variability a common plasma sample was run in each assay.
molecule,measurement,setting,value
"Compound A: anti-BAM antibody comprising a heavy chain of SEQ ID NO: 10 and a light chain of SEQ ID NO: 11 (antibody, Mature H2 heavy chain amino acid sequence.; Mature Light chain amino acid sequence.) heavy: EVQLVESGGGLVQPGGSLRLSCAVSGFTFSDNGMAWVRQAPGKGLEWVSFISNLAYSIDYADTVTGRFTISRDNAKNSLYLQMNSLRAEDTAVYYCVSGTWFAYWGQGTLVTVSSASTKGPSVFPLAPSSKSTSGGTAALGCLVKDYFPEPVTVSWNSGALTSGVHTFPAVLQSSGLYSLSSVVTVPSSSLGTQTYICNVNHKPSNTKVDKKVEPKSCDKTHTCPPCPAPELAGAPSVFLFPPKPKDTLMISRTPEVTCVWDVSHEDPEVKFNWYVDGVEVHNAKTKPREEQYNSTYRWSVLTVLHQDWLNGKEYKCKVSNKALPAPIEKTISKAKGQPREPQVYTLPPSRDELTKNQVSLTCLVKGFYPSDIAVEWESNGQPENNYKTTPPVLDSDGSFFLYSKLTVDKSRWQQGNVFSCSVMHEALHNHYTQKSLSLSPGK light: DIVMTQSPLSLPVTPGEPASISCRVSQSLLHSNGYTYLHWYLQKPGQSPQLLIYKVSNRFSGVPDRFSGSGSGTDFTLKISRVEAEDVGVYYCSQTRHVPYTFGGGTKVEIKRTVAAPSVFIFPPSDEQLKSGTASVVCLLNNFYPREAKVQWKVDNALQSGNSQESVTEQDSKDSTYSLSSTLTLSKADYEKHKVYACEVTHQGLSSPVTKSFNRGEC",overall increase of CFI bioactivity,after the second administration,10%
same,overall increase of CFI bioactivity,after the third administration,28%
